Molecular target: X-linked inhibitor of apoptosis protein (XIAP) BIR3 domain (human)
Assay: fluorescence polarisation; competition: XIAP BIR3 (50 nM) added to the competitor (50 µM to 0.640 nM or to 0.0537 nM), 15 min at r.t., then probe 4 (2 nM), read 30 min later; phosphate buffer pH 7.5 with γ-globulin 100 µg/mL and NaN3 0.02%, final DMSO 1.4%

Binder: H-AVPW-OH [tetrapeptide H2N-Ala-Val-Pro-Trp-OH (3)]
- EC50: 340 nM

From PMC7497679, “Structure-based design, synthesis, and evaluation of the biological activity of novel phosphoroorganic small molecule IAP antagonists” (Investigational New Drugs, 2020)
